“Also recorded” adds a separate entry of the source. Values belong to the substance of their own block, whether it stands above or below them.
Tests used:
[1] = target: human full-length Hsp90β (human) (UniProt P08238); test: SEC; analytical Superdex200 10/300 GL, room temperature, 0.3 mL/min; 85 µM protein in 50 mM HEPES pH 7.5, 50 mM KCl, 5 mM MgCl2, 1 mM DTT; fractions on SDS-PAGE
p50Cdc37 1-378 = p50Cdc37 1-378 (UniProt Q16543); test: ELISA on immobilized GST-p50Cdc37, nucleotide dose-response; conditions: for other: IC50 of ADP against complex: ADP titration; for other: IC50 of ATP against complex: ATP titration
Hsp90β = Hsp90β (UniProt P08238); test: as above; conditions: sites S13
[2] = target: Hsp82 (Saccharomyces cerevisiae) (UniProt P02829); conditions: cited from earlier work
Sequence of Hsp82 (Saccharomyces cerevisiae) (P02829 whole entry): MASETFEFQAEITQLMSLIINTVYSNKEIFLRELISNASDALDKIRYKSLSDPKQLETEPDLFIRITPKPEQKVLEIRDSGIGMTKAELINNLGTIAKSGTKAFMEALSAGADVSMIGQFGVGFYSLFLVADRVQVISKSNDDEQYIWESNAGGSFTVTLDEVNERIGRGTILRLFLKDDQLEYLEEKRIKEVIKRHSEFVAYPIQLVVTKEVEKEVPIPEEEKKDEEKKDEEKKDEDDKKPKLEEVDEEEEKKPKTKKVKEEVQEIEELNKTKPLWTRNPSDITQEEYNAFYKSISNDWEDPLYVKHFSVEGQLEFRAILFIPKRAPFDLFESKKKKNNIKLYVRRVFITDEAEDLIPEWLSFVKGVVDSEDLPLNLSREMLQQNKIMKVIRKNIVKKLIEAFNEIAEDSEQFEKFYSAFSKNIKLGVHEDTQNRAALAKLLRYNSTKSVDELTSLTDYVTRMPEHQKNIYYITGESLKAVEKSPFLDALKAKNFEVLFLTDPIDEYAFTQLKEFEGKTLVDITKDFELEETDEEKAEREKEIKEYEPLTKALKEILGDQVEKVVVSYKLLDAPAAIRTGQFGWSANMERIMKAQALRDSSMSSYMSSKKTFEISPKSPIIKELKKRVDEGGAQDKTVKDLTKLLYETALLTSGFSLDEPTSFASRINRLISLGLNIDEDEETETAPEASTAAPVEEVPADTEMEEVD

[3] = reference: unphosphorylated Hsp90β, sites S226,S255
[4] = reference: both proteins unphosphorylated, sites S226,S255,S13

Sequence of p50Cdc37 (Q16543 whole entry): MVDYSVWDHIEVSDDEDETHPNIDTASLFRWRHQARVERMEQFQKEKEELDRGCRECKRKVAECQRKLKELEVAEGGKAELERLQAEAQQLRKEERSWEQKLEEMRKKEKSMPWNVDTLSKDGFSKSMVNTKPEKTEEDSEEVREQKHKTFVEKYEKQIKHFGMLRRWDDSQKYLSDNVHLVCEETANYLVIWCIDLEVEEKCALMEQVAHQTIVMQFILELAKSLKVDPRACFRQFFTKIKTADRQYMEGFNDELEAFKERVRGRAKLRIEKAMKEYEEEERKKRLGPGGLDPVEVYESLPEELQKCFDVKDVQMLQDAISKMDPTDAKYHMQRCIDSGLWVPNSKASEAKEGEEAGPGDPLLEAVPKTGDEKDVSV
Sequence of human full-length Hsp90β, P08238 1-724 (natural protein; other documents disagree on this pair) (P08238 whole entry): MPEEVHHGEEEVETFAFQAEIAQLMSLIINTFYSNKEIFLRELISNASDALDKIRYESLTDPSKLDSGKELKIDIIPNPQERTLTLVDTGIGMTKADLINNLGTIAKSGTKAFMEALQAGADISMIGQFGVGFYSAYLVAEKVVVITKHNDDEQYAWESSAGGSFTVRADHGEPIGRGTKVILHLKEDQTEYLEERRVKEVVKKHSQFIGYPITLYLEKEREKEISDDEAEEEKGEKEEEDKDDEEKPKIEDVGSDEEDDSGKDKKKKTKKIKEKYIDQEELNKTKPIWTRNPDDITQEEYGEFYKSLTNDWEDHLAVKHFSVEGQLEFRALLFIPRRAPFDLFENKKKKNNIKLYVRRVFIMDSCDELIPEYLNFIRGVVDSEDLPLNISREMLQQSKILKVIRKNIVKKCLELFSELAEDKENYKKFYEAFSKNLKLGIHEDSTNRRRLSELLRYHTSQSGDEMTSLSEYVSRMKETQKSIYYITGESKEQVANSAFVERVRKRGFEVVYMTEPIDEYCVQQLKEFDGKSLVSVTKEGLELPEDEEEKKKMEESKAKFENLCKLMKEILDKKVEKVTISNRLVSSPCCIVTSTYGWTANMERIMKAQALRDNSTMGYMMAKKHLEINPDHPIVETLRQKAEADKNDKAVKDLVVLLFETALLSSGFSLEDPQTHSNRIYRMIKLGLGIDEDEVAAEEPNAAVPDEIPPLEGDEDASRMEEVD

Substance: Hsp90β (from UniProt P08238) CK2α-phosphorylated Hsp90β, ADP titration
other: IC50 of ADP against complex (p50Cdc37 1-378; [3]): weaker; reference 500 ± 94; also recorded: weaker; reference 270 ± 35

Substance: p50Cdc37 1-378 (from UniProt Q16543) CK2α-phosphorylated p50Cdc37, ADP titration
other: IC50 of ADP against complex (Hsp90β; reference: unphosphorylated p50Cdc37, ADP titration): weaker; reference 500 ± 94; also recorded: weaker; reference 220 ± 24

Substance: p50Cdc37 1-378 (from UniProt Q16543) CK2α-phosphorylated p50Cdc37, ATP titration
other: IC50 of ATP against complex (Hsp90β; reference: unphosphorylated p50Cdc37, ATP titration): same; reference >1000

Substance: p50Cdc37 (from UniProt Q16543)
Kd [2]: 1460 nM

Substance: Hsp90β (from UniProt P08238) both proteins CK2α-phosphorylated, ATP titration
other: IC50 of ATP against complex (p50Cdc37 1-378; [4]): weaker; reference >1000

Now from value to substance:

stoichiometry N [1]: 2
Substance: human full-length Hsp90β, P08238 1-724 (natural protein; other documents disagree on this pair)

other: IC50 of ATP against complex (p50Cdc37 1-378; [3]): weaker; reference >1000
Substance: Hsp90β (from UniProt P08238) CK2α-phosphorylated Hsp90β, ATP titration

other: IC50 of ADP against complex (p50Cdc37 1-378; [4]): weaker; reference 500 ± 94
Substance: Hsp90β (from UniProt P08238) both proteins CK2α-phosphorylated, ADP titration

— paper PMC4601640, “Stability of the Human Hsp90-p50^Cdc37 Chaperone Complex against Nucleotides and Hsp90 Inhibitors, and the Influence of Phosphorylation by Casein Kinase 2” (Molecules, 2015)
